Measured values taken from IntAct's records for PubMed 25910212.

B1: Retinol dehydrogenase 12 (Homo sapiens), Q96NR8 (parent)
chain: MLVTLGLLTSFFSFLYMVAPSIRKFFAGGVCRTNVQLPGKVVVITGANTGIGKETARELASRGARVYIACRDVLKGESAASEIRVDTKNSQVLVRKLDLSDTKSIRAFAEGFLAEEKQLHILINNAGVMMCPYSKTADGFETHLGVNHLGHFLLTYLLLERLKVSAPARVVNVSSVAHHIGKIPFHDLQSEKRYSRGFAYCHSKLANVLFTRELAKRLQGTGVTTYAVHPGVVRSELVRHSSLLCLLWRLFSPFVKTAREGAQTSLHCALAEGLEPLSGKYFSDCKRTWVSPRARNNKTAERLWNVSCELLGIRWE
B2: Beta-crystallin A4 (Homo sapiens), P53673 (parent)
chain: MTLQCTKSAGPWKMVVWDEDGFQGRRHEFTAECPSVLELGFETVRSLKVLSGAWVGFEHAGFQGQQYILERGEYPSWDAWGGNTAYPAERLTSFRPAACANHRDSRLTIFEQENFLGKKGELSDDYPSLQAMGWEGNEVGSFHVHSGAWVCSQFPGYRGFQYVLECDHHSGDYKHFREWGSHAPTFQVQSIRRIQQ
partner: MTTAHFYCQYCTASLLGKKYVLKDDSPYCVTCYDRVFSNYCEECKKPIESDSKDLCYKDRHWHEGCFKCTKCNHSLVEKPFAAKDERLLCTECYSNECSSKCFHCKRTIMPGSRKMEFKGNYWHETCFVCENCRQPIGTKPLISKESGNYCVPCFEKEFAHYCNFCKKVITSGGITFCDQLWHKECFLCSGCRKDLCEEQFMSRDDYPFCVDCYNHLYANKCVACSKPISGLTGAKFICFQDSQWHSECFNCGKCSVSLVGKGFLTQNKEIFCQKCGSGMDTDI
B3: Corrinoid adenosyltransferase MMAB (Homo sapiens), Q96EY8 (parent)
chain: MAVCGLGSRLGLGSRLGLRGCFGAARLLYPRFQSRGPQGVEDGDRPQPSSKTPRIPKIYTKTGDKGFSSTFTGERRPKDDQVFEAVGTTDELSSAIGFALELVTEKGHTFAEELQKIQCTLQDVGSALATPCSSAREAHLKYTTFKAGPILELEQWIDKYTSQLPPLTAFILPSGGKISSALHFCRAVCRRAERRVVPLVQMGETDANVAKFLNRLSDYLFTLARYAAMKEGNQEKIYMKNDPSAESEGL
partner: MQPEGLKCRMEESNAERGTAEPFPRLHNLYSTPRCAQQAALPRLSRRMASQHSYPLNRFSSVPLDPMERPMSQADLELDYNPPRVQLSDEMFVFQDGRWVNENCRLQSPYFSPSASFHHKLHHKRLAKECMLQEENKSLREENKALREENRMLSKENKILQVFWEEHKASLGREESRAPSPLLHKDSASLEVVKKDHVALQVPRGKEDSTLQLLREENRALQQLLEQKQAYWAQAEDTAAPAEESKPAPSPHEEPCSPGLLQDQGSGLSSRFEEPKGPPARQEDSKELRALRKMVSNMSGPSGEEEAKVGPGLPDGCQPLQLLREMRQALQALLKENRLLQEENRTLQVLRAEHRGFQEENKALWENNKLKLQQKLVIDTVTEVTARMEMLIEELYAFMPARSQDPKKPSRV
B4: Elongation factor Ts, mitochondrial (Homo sapiens), P43897-2 (parent)
chain: MSLLRSLRVFLVARTGSYPAGSLLRQSPQPRHTFYAGPRLSASASSKELLMKLRRKTGYSFVNCKKALETCGGDLKQAEIWLHKEAQKEGWSKAAKLQGRKTKEGLIGLLQEGNTTVLVEVNCETDFVSRNLKFQLLVQQVALGTMMHCQTLKDQPSAYSKVQWLTPVNLALWEAEAGGSLEGFLNSSELSGLPAGPDREGSLKDQLALAIGKLGENMILKRAAWVKVPSGFYVGSYVHGAMQSPSLHKLVLGKYGALVICETSEQKTNLEDVGRRLGQHVVGMAPLSVGSLDDEPGGEAETKMLSQPYLLDPSITLGQYVQPQGVSVVDFVRFECGEGEEAAETE
B5: Glycophorin-B (Homo sapiens), P06028 (parent)
chain: MYGKIIFVLLLSEIVSISALSTTEVAMHTSTSSSVTKSYISSQTNGETGQLVHRFTVPAPVVIILIILCVMAGIIGTILLISYSIRRLIKA
B6: Synaptogyrin-1 (Homo sapiens), O43759-2 (parent)
chain: MEGGAYGAGKAGGAFDPYTLVRQPHTILRVVSWLFSIVVFGSIVNEGYLNSASEGEEFCIYNRNPNACSYGVAVGVLAFLTCLLYLALDVYFPQISSVKDRKKAVLSDIGVSAFWAFLWFVGFCYLANQWQVSKPKDNPLNEGTDAARAAIAFSFFSIFTWSLTAALAVRRFKDLSFQEEYSTLFPASAQP
partner: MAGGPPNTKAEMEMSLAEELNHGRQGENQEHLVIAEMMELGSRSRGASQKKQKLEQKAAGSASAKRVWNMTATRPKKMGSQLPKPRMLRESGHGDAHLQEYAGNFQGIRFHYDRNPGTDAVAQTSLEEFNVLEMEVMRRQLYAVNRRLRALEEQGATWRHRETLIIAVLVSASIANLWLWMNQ

Variants of: B1
Settings: with RBPMS

Row | effect of a mutation on the interaction | Variant
1 | with no effect | P230A
2 | with no effect | T49M

Variants of: B2
Settings: with fhl5_human FHL5, Q5TD97

Row | Variant | effect of a mutation on the interaction
3 | L69P | disrupting interaction strength
4 | V36M | disrupting interaction strength
5 | F94S | disrupting interaction strength

Variants of: B3
Settings: with CBY2, Q8NA61-2

Row | Variant | effect of a mutation on the interaction
6 | I96T | with no effect
7 | A135T | with no effect

Results, then the variant that gave them:

Row | effect of a mutation on the interaction | Variant
8 | with no effect | R190C
9 | with no effect | R186Q

Variants of: B4
Settings: with pp12c_human PPP1R12C

Row | effect of a mutation on the interaction | Variant
10 | disrupting interaction strength | R333W

Variants of: B5
Settings: with ubql1_human UBQLN1, Q9UMX0

Row | effect of a mutation on the interaction | Variant
11 | with no effect | T48M

Variants of: B6
Settings: with fate1_human FATE1, Q969F0

Row | effect of a mutation on the interaction | Variant
12 | disrupting interaction strength | K99E
